These results are taken from patent US20140322218A1 (Amgen, published 2014).

The target of this experiment is T1, muCDH19(44-362)::huCDH19(365-772), Flag-tagged, on 293T cells (human/mouse chimera).
T1 construct: also called Hu EC4-5; C137917
T1 chain: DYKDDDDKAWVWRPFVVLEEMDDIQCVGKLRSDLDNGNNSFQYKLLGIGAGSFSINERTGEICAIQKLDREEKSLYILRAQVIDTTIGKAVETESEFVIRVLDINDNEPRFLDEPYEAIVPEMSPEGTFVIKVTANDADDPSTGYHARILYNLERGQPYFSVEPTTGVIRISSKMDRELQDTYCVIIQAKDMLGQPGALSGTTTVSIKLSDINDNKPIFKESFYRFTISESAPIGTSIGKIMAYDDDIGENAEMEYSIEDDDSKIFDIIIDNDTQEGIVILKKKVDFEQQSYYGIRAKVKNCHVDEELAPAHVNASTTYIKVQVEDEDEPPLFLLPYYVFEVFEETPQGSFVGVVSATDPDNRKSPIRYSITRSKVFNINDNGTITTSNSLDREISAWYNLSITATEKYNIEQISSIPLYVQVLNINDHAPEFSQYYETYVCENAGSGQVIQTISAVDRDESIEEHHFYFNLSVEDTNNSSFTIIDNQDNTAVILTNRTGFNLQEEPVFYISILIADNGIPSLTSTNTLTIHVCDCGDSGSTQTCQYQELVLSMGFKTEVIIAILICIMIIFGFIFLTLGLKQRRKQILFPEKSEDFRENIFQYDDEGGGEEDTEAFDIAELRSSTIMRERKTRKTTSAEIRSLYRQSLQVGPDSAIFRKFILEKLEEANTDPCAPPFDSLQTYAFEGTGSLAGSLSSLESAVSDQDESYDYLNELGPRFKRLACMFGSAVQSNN
The experiment can be described thus: FACS, transfected 293T. A general note: In flow cytometry, cells or beads pass a laser one at a time.

Excerpt: The experiment included assaying the anti-CDH19 antibodies against mouse Cadherin19 to determine suitability for binning on these human/mouse chimeras.

B1: anti-CDH19 antibody 2G6 (Ab ID 13588) (antibody, human IgG1, lambda, V domains shown)
VH: QVQLVESGGGVVQPGRSLRLSCAASGFTFSSYGMHWVRQAPGKGLEWVAFIWYDGSNKYYADSVKDRFTISRDNSKNTLYLQMKSLRAEDTAVYYCARRAGIIGTIGYYYGMDVWGQGTTVTVSS
VL: SYELTQPPSVSVSPGQTASITCSGDRLGEKYTCWYQQRPGQSPLLVIYQDTKRPSGIPERFSGSNSGNTATLTISGTQAMDEADYYCQAWDSSTVVFGGGTKLTVLG
With B1, the binding result is listed as “binds”.
